Results: the DeepSol protein solubility set

Assay: soluble on expression in E. coli; label from the status in PepcDB or PDB records

Sequence	soluble on expression in E. coli
MKKWLPAFLFLSLSGCNDALAANQSTMFYSFNDNIYRPQLSVKVTDIVQFIVDINSASSTATLSYVACNGFTWTHGLYWSEYFAWLVVPKHVSYNGYNIYLELQSRGSFSLDAEDNDNYYLTKGFAWDEANTSGQTCFNIGEKRSLAWSFGGVTLNARLPVDLPKGDYTFPVKFLRGIQRNNYDYIGGRYKIPSSLMKTFPFNGTLNFSIKNTGGCRPSAQSLEINHGDLSINSANNHYAAQTLSVSCDVPTNIRFFLLSNTNPAYSHGQQFSVGLGHGWDSIISINGVDTGETTMRWYRAGTQNLTTGSRLYGESSKIQPGVLSGSATLLMILP	soluble
MKKYFLGDQPTTLDASAFGFLINTIACPIESPLKEYGLSKENLGDYIDRIKMQYYPDLQLEHHHHHH	not soluble
MKLDKIDNKNRRIRKKLFLGEFAILGFEISCETDINDFDRYDAFVDDFIDYIDTLGLCFGGGGLELFEGFLCSTERYGSATEEQKAQVVAWLEARPEVKSAKAGDLLDANYL	soluble
MKLDLDAFRIQPGKKPNLAKRPTRIDPVYRSKGEYHELLANHVAELSKLQNVLYADNRYAILLIFQAMDAAGKDSAIKHVMSGVNPQGCQVYSFKHPSATELEHDFLWRTNCVLPERGRIGIFNRSYYEEVLVVRVHPEILEMQNIPHNLAHNGKVWDHRYRSIVSHEQHLHCNGTRIVKFYLHLSKEEQRKRFLERIDDPNKNWKFSTADLEERKFWDQYMEAYESCLQETSTKDSPWFAVPADDKKNARLIVSRIVLDTLESLNLKYPEPSPERRKELLDIRKRLENPENGK	not soluble
MKLERILPFSKTLIKEHIKQDSIVIDATCGNGNDTLFLAQQVSNGHVFGFDIQDTAIQSTFEKVKAFNNVTLIQDGHENIKKHIDIQFKGQIDAAIFNLGYLPKGDKSIVTRPETTIKAINAIFDYLSVEGIIVLVIYHGHAEGQVERDALLDFLEHFDQEKAHILKYQFMNQVNHAPFICAIEKRLEHHHHHH	not soluble
MKLIKTIDAVGQVLCHDITQIIPGEFKGRKFKKGHIVKEEDIPVLLSLGKDNLYVWEKSEGMVHENEGALFLKELTAGENLDFSEIKEGKIDFIAACDGLLKIDVDALFDLNCVGEIMMATLHNNFIVNKGLKVAGTRVIPLVIDEKKLEDAKKVVGNRKIVNVVPFKPKKVGIVTTGNEVFYSRIVDKFGPVIEEKVKGFGCEVIGQTICPDDKEIIKSAIKEFISQGAELICCTGGMSVDPDDVTPTAIKETGADLVTYGSPILPGAMFLLAYYGEVPIMGIPGCAMYHKTTVFDIVLSRVLIDEKLDKYDIARYGHGGLCMNCDVCTYPACNFAKI	soluble
MKLINTTNSHSQLVKSQLESTDATLVEVYSAGNTDVIFTQAPLHYEILISNKHRAIREPEIETIQEFFLKRKIDKASVDEANIKTLYSEKLIGISIPIK	not soluble
MKLKDCVMIKKIFALPVIEQISPVLSRRKLDELDLIVVDHPQVKASFALQGAHLLSWKPAGEEEVLWLSNNTPFKNGVAIRGGVPVCWPWFGPAAQQGLPAHGFARNLPWTLKSHHEDADGVALTFELTQSEETKKFWPHDFTLLAHFRVGKTCEIDLESHGEFETTSALHTYFNVGDIAKVSVSGLGDRFIDKVNDAKENVLTDGIQTFPDRTDRVYLNPQDCSVINDEALNRIIAVGHQHHLNVVGWNPGPALSISMGDMPDDGYKTFVCVETAYASETQKVTKEKPAHLAQSIRVAKRLEHHHHHH	not soluble
MKLKIDLNCDLGEAFGNYTFGGDQHILPLITSANIACGYHAGDEDVMNETVQLAKKNNISIGAHPGLPDLKGFGRRKMDLTPNEIYNLVIYQLGALSGFCKINHVKMMHVKPHGALYQMGARNKEIAHAIAQAVFDFDSNLIFVGLANTLLISEAELVGLKVASEVFADRRYEDDGQLVSRKKTDATITNTDEAIQQALKMVLENKVVSKNGKIIDLKADTICVHGDGKHALEFVTQIRNELMKEGIDIQSLLEHHHHHH	soluble
MKLLILGNHTCGNRGDSAILRGLLDAINILNPHTEVDVMSRYPVSSSWLLNRPVMGDPLFLQMKQHNSAAGVVGRVKKVLRRRYQHQVLLSRVTDTGKLRNIAIAQGFTDFVRLLSGYDAIIQVGGSFFVDLYGVPQFEHALCTFMAKKPLFMIGHSVGPFQDEQFNQLANYVFGHCDALILRESVSLDLMKRSNITTAKVEHGVDTAWLVDHHTEDFTASYAVQHWLDVAAQQKTVAITLRELAPFDKRLGTTQQVYEKAFAGVVNRILDEGYQVIALSTCTGIDSYNKDDRMVALNLRQHISDPARYHVVMDELNDLEMGKILGACELTVGTRLHSAIISMNFATPAIAINYEHKSAGVMQQLGLPEMAIDIRHLLDGSLQAMVADTLGQLPALNARLSEAVSRERQTGMQMVQSVLERIGEVK	soluble
MKLLQRGVALALLTTFTLASETALAYEQDKTYKITVLHTNDHHGHFWRNEYGEYGLAAQKTLVDGIRKEVAAEGGSVLLLSGGDINTGVPESDLQDAEPDFRGMNLVGYDAMAIGNHEFDNPLTVLRQQEKWAKFPLLSANIYQKSTGERLFKPWALFKRQDLKIAVIGLTTDDTAKIGNPEYFTDIEFRKPADEAKLVIQELQQTEKPDIIIAATHMGHYDNGEHGSNAPGDVEMARALPAGSLAMIVGGHSQDPVCMAAENKKQVDYVPGTPCKPDQQNGIWIVQAHEWGKYVGRADFEFRNGEMKMVNYQLIPVNLKKKVTWEDGKSERVLYTPEIAENQQMISLLSPFQNKGKAQLEVKIGETNGRLEGDRDKVRFVQTNMGRLILAAQMDRTGADFAVMSGGGIRDSIEAGDISYKNVLKVQPFGNVVVYADMTGKEVIDYLTAVAQMKPDSGAYPQFANVSFVAKDGKLNDLKIKGEPVDPAKTYRMATLNFNATGGDGYPRLDNKPGYVNTGFIDAEVLKAYIQKSSPLDVSVYEPKGEVSWQ	soluble
MKLQQLKYALEVYQHNLNVSEAAEALFTSQPGISKQIKLLEEEIGIQIFIRSGKRVVSVSQPGKVVLDIAERILRDVQNIKNIGSEFTGQDSGSLTVATTHTQARYALPLIVADFVKRYPKVNLTIKQGSPAAIARMVTSGEADLAIVTERIDDHPELGKLPCYDWTHAVIVPNDHPLLECRNPLRIEDLARFPLITYEFAFNAGSSIARAFSKARLEQPDVALAAADTDVLKTYVRLGLGVGLMAKMAYNPDTDGDLQLVDAAHLFEPSPTWIALRSDTYLRGYAYDFIQAFAPHLTREKVDRILYTPISEDFSI	soluble
MKLSEIYNFLDQLSPFNIQESWDNSGILLGDRDSEISTVYLSLDIDENIIKEASENSLIITHHPLIFKGLKDLYDKTYPRAFIKEMIYKNISLISMHTNYDLSHLNTYFTEEILGFKISFKDKFLIYVENSMSFEALCDWVKKKLNLQILRVSDCGKKDIKRIAICTGSGGDLISKVDADCFLSGDFKYHQALEALSNQISLIDLGHFESERYFSQCLAKDLKNLPLQVIITVSKNPFQYFLEHHHHHH	soluble
MKLSTSLEMPFRESTDPICSVCNFSSLIAPHFGGLVCSACASFFRRTVALNIHYLCKKDNQCKGMRKNCRACRFESCVKIAGMKRSLVKERKNLNNIPLYILNRRNETGNQGVVRAFVSSNQNRLENRLSLSPLTELPINDEMDVSKILKTTPSSLLKYYVEQVSHGKQFYMNTLNIRTKEELFEIVSYQSKVAAETCRTCPGVDLLDNRDILILRKYFQFSNIWIESTWKYWFSNDFSNDTEKFDIKLMEFIGQVKSTLLISLSRLKFNIFEFTAFKAICIWKLVYHETSRAMKIVAQEHYEGVTKALISYYQTYTLLDSMEIAIRVGEITLLVSSVFQMYHDMAKLYLHMGLPF	not soluble
MKLTDSVLRSFRVAKVFRENSDKINCFDFSSNGETVISSSDDDSIVLYDCQEGKPKRTLYSKKYGVDLIRYTHAANTVVYSSNKIDDTIRYLSLHDNKYIRYFPGHNKRVVALSMSPVDDTFISGSLDKTIRLWDLRSPNCQGLMHLQGKPVCSFDPEGLIFAAGVNSEMVKLYDLRSFDKGPFATFKLQYERTCEWTGLKFSNDGKLILVSTNGGTLRVLDAFKGAVLHSFGGYNNSKGVILEAPFTPDSQFIMIGSEDGKIHVWNAESGMKVALLDGKHTGPVTCLQFNPKFMTFASACSNMAFWLPTIDD	not soluble
